# Assay results as given in patent publication US20110129458A1 (Ablynx, published 2011).
# T1: rhPDL2-Fc: fusion protein of the extracellular part of human PD-L2 and mouse Fc gamma 1, R&D Systems Cat … (human; mouse, UniProt Q9BQ51 20-220)
# T1 construct: extracellular domain; Bought product, made in NS0 cells; also called PD-L2 ectodomain; PDL2/hFc
# T1 sequence (looked up): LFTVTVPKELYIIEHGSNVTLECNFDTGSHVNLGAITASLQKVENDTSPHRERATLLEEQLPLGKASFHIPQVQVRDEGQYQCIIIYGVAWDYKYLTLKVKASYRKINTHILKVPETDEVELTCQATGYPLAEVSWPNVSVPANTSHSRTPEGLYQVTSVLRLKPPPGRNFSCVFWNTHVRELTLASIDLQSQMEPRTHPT
# Assays:
# [1] = target: T1, rhPDL2-Fc: fusion protein of the …; assay: ELISA, purified Nanobody titrated on coated PD-L2-Fc (Example 9), OD 490 nm
# Description: In short, 5 μg/ml PD-L2 ectodomain (R&D Systems, Minneapolis, US, Cat #1224-PL) was immobilized on maxisorp microtiter plates (Nunc, Wiesbaden, Germany) and free binding sites were blocked using 4% Marvel in PBS. Next, 10 μl of periplasmic extract containing Nanobody of the different clones in 100 μl 2% Marvel PBST were allowed to bind to the immobilized antigen. […] Binding specificity was determined based on OD values compared to controls having received no Nanobody (low control). 32 out of the 96 selected clones were able to bind to PD-L2 with some specificity.
# Clones were selected for recloning in an expression vector derived from pUC119 which contained the LacZ promoter, a resistance gene for ampicillin or carbenicillin, a multicloning site and the gen3 leader sequence. In frame with the Nanobody® coding sequence, the vector coded for a C-terminal c-myc tag and a (His)6 tag. After expression, the obtained Nanobodies were purified via the His-tag on Talon beads. Purified Nanobodies were tested in ELISA for binding to PD-L2 as described.
# [2] = target: T2, rhB7H1-Fc: fusion protein of the extracellular part of human B7-H1 (PD-L1) and mouse Fc gamma 1, R&D Systems … (human; mouse, UniProt Q9NZQ7 19-238); assay: ELISA, Nanobody dilution series 1-3125 nM on coated B7H1/hFc, rabbit anti-VHH detection, OD 490 nm (Example 11)
# T2 construct: extracellular domain; Bought product, made in NS0 cells; also called B7-H1 ectodomain; B7H1/hFc
# T2 sequence (Q9NZQ7 19-238 limits assumed): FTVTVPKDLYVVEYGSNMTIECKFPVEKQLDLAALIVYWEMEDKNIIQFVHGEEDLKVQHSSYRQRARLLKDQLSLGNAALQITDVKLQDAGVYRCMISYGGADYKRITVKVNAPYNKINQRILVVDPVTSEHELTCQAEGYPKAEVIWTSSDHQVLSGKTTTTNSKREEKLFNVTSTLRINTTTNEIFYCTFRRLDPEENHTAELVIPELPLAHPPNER
# Description: (§1) In order to check for bispecific binding, the clones selected and screened for PD-L2 binding were tested for binding PD-L1 in an ELISA setup. In short, plates were coated with 100 μl (2 μg/ml) of B7H1/hFc (R&D Systems, Minneapolis, US, Cat #156-B7) in PBS overnight at 4C. After washing, plates were blocked with 4% MPBS for 2 hours on a shaker. A dilution series of Nanobody (1-3125 nM) in 100 μl 2% Marvell/PBS was added and incubated for 1 hour on a shaker. After washing, detection was performed with 100 μl 1:5000 rabbit-anti-VHH in 2% Marvell/PBS for 1 hour on a shaker. After washing, anti-VHH antibody was detected with 100 μl 1:5000 DARPO (in 2% Marvell/PBS for 1 hour on a shaker). PO was detected with 100 μl OPD (add 1:1000 H₂O₂ before use). The reaction was stopped with 50 μl 1 M H₂SO₄ and absorption was read at 490 nm with a platereader.
# [3] = target: T1, rhPDL2-Fc: fusion protein of the …; assay: ELISA, Nanobody dilution series 1-3125 nM on coated PDL2/hFc, rabbit anti-VHH detection, OD 490 nm (Example 10)
# Description: as §1, with “screened for B7-H1 binding were” for “screened for PD-L2 binding were”, “for binding PD-L2 in an” for “for binding PD-L1 in an”, “μg/ml) of PDL2/hFc (R&D Systems,” for “μg/ml) of B7H1/hFc (R&D Systems,”, “US, Cat #1224-PL) in PBS” for “US, Cat #156-B7) in PBS”, “on a shaker, A dilution” for “on a shaker. A dilution”, “with […] and” for “with 50 μl 1 M H₂SO₄ and”
# [4] = target: T2, rhB7H1-Fc: fusion protein of the …; assay: ELISA, purified Nanobody titrated on coated rhB7H1-Fc (Example 5), OD 490 nm
# Description: In short, 5 μg/ml B7-H1 ectodomain (rhB7H1-Fc, R&D Systems, Minneapolis, US, Cat #156-B7) or control Fc was immobilized on maxisorp microtiter plates (Nunc, Wiesbaden, Germany) and free binding sites were blocked using 4% Marvel in. PBS. […] […] Binding specificity was determined based on OD values compared to controls having received no Nanobody (low control). 17 out of the 96 selected clones were able to bind to B7-H1 with some specificity.
Binder,binding result [1],binding result [2],binding result [3],binding result [4],EC50 (read off the curve) [3] [nM]
"103D3 (VHH, also called anti-PDL2 nanobody 103D3) VHH: EVQLVESGGGLVEPGGSLRLSCVASGFTFSSYDMSWVRQAPGKGLEWVSTINSGGGITYRGSVKGRFTISRDNAKNTLYLQMNSLKPEDTAVYYCENGGSSYRRGQGTQVTVSS",binds,no binding (tested: 3125 nM),–,–,–
"104E12 (VHH, also called anti-B7H1 nanobody 104E12) VHH: EVQLVESGGGLVQPGGSLRLSCAASGFTFDYYAIGWFRQAPGKAREGVSCISGGDNSTYYADSVKGRFTISRDNAKNTVYLQMNSLKPEDTAVYYCATGGWKYCSGYDPEYIYWGQGTQVTVSS",–,–,no binding (tested: 3125 nM),–,–
"104F5 (VHH, purified via the His-tag; also called anti-B7H1 nanobody 104F5) VHH: EVQLVESGGGLVQPGGSLRLSCAASGFTLDYYAKCWFRQAPGKEREWVSCISSSDGSTYYADSVKGRFTISRDNAKNTVYLQMNSLKPEDTAVYFCAARHGGPLTVEYFFDYWGQGTQVTVSS",–,–,no binding (tested: 3125 nM),binds,–
"104D2 (VHH, purified via the His-tag; also called anti-B7H1 nanobody 104D2) VHH: EVQLVESGGGLVQPGGSLRLSCAASGFTLDYYAIGWFRQAPGKEREWASSISSSDGSTYYADSVKGRFTISRDNAKNTVFLQMNSLKPEDTAVYSCAASQAPITIATMMKPFYDYWGQGTQVTVSS",–,–,–,binds,–
"103F10 (VHH, also called anti-PDL2 nanobody 103F10) VHH: EVQLVESGGGLVQAGGSLRLSCAASGRTFSSGTMGWFRRAPGKEREFVASIPWSGGRTYYADSVKDRFTISRDNAQNTVFLQMNSLKPEDTAVYYCAFKERSTGWDFASWGQGIQVTVSS",binds,binds,–,–,–
"104B10 (VHH, also called anti-B7H1 nanobody 104B10) VHH: EVQLVESGGGLVQAGGSLRLSCAASGSTFSQYDVGWYRQAPGKQRELVAFSSSGGRTIYPDSVKGRFTFSRDNTKNTVYLQMTSLKPEDTAVYYCKIDWYLNSYWGQGTQVTVSS",–,–,binds,binds,–
"104D7 (VHH, also called anti-B7H1 nanobody 104D7) VHH: EVQLVESGGGLVQAGGSLTISCAASGITFSDSIVSWYRRARGKQREWVAGISNGGTTKYAESVLGRFTISRDNAKNMVYLQMNGLNPEDTAVYLCKVRQYWGQGTQVTVSS",–,–,–,binds,~30
"103E2 (VHH, also called anti-PDL2 nanobody 103E2) VHH: EVQLVESGGGLVQAGGSLRLSCAASGSTFSNYVSNYAMGWGRQAPGTQRELVASISNGDTTNYADSVKGRFTISRDNAKNTVYLQMNSLKPEDTAVYYCFEHQVAGLTWGQGTQVTVSS",binds,no binding (tested: 3125 nM),–,–,–
